Reference: article PMC7097781 (Nature Structural & Molecular Biology, 2013)

Molecular target: T1, human MacroD2 macrodomain (aa 7–243), wild type (human, UniProt A1Z1Q3 7-243)
T1 sequence (looked up): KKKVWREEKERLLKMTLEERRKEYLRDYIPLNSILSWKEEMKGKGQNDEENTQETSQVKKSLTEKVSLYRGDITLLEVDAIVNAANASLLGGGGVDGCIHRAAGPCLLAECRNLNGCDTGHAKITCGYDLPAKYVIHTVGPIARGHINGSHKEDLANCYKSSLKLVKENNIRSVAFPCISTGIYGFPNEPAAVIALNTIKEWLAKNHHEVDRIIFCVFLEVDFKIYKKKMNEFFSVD
Assay: pull-down

binding result: binds
B1: GST-PARP10 catalytic domain (aa 818–1025), ADP-ribosylated (domain or fragment, UniProt Q53GL7 818-1025, looked up)
chain: NNLERLAENTGEFQEVVRAFYDTLDAARSSIRVVRVERVSHPLLQQQYELYRERLLQRCERRPVEQVLYHGTTAPAVPDICAHGFNRSFCGRNATVYGKGVYFARRASLSVQDRYSPPNADGHKAVFVARVLTGDYGQGRRGLRAPPLRGPGHVLLRYDSAVDCICQPSIFVIFHDTQALPTHLITCEHVPRASPDDPSGLPGRSPDT
modifications: mono-ADP-ribosylated (automodified; single ADPr units on glutamate residues); sites not stated
